In the supplement of paper PMC9170038:

Test system: MS2 coat protein
Assay: apparent KD of MS2 coat protein; designed switch direction (-1 OFF switch, 1 ON switch): -1; higher = weaker reporter binding
How it was run: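 Designed RNA switches sharing common flanks were transcribed on Illumina chips by stalled E. coli RNA polymerase. They were titrated with SNAP-549-labelled MS2 coat protein, from 0.7 or 1.5 nM doubling to 3 µM, in Tris-HCl pH 7.5 buffer with KCl, MgCl2, BSA, DTT, tRNA and Tween-20. Titrations ran without input, with 200 uM small-molecule ligand, or with an oligonucleotide input. The apparent KD of each design is the median over its clusters, after curve-fitting of normalised cluster fluorescence.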

[1] = Eterna round: R95, input ligand: microRNA oligo, concentration not stated
[2] = Eterna round: R95, input ligand: FMN 200 uM
[3] = Eterna round: R95, input ligand: none

Sequence | apparent KD of MS2 coat protein (input ligand: FMN 200 uM) | apparent KD of MS2 coat protein (input ligand: none) | apparent KD of MS2 coat protein [1] | other results
GACUAGGGAGGAUAUAUUUACAGUGUACCUCGGGUGAUCGCACUUGAGGAUCACCCAAGUAGAAGGCUCGAGGG [EX2 #27] (Eterna round: R97, puzzle: Exclusion 2) | 30 nM | 35.9 nM | – | –
GACUAGUGAGGAUAUACUUGCAGUGUACCUCGGGUGAUCUCACUUGAGGAUCACCCAAGUAGAAGGCGCGAGGG [EX2 #23] (Eterna round: R97, puzzle: Exclusion 2) | 13.1 nM | 18.3 nM | – | –
GACUAUUCGUAGGAUAUACUACUUAGCUAUGGAGUAGAAGGACGAACAUGAGGAUCACCCAUGUGGGACCCGGG [Eternabot (L2) Solution 31] (Eterna round: R97, puzzle: Exclusion 6) | 125 nM | 81.2 nM | – | –
GACUGCUGAGGAUAUACAUGAGGAUCACCCAUGUGCUUCAGUAUCGAAAGAUGCAUGGGUAGAAGGUGGUAGUC [LRO-Excl3-09] (puzzle: Exclusion 3) | – | – | 80.1 nM | –
GAGAAACAUGAGGAUCACCCAUGUGAGGAUAUGUGAGACUAAAGCGCGCAGGCUAAGGACAGAAGGCACAAGGA [Excls1-Ia] (puzzle: Exclusion 1) | – | – | 42.6 nM | apparent KD of MS2 coat protein [2]: 57.5 nM; apparent KD of MS2 coat protein [3]: 53 nM
GAGAAAGCAAGCAAGUGAAACAUGAGGAUCACCCAUGUCCUCAUUUGCUCGUCUUAUAAAAGCUAUCGAAAGAUAGC [Mat - Sensor v3 - turn-off var 1 - Eli Mod - D48] (puzzle: Sensor v3, turn-off variant 1) | – | – | 139 nM | apparent KD of MS2 coat protein [2]: 13.2 nM; apparent KD of MS2 coat protein [3]: 10.3 nM
GAGAAGGUAGGAUAUACGAAGAAAGAGGGUAGUAAUAAUACACAUGAGGAUCACCCAUGUAGAAGGACCAAGAG [Mat - Exclusion 2 - Mod of my Tesla design - D45] (puzzle: Exclusion 2) | – | – | 24.7 nM | apparent KD of MS2 coat protein [2]: 35.9 nM; apparent KD of MS2 coat protein [3]: 21.7 nM
GAGAAGGUAGGAUAUACGAAUAAAUAGGGUAGGAAGAAGACACAUGAGGAUCACCCAUGUAGAAGGACCAAGAU [Mat - Exclusion 2 - Mod of my Tesla design - D35] (puzzle: Exclusion 2) | – | – | 18.1 nM | –
GAGAGGUCAGGAUAUACGGAGAGAGGGAGUUGGUGAGGGUAACAUGAGGAUCACCCAUGUAGAAGGGACUAAGG [JR_Exclu2_Sub077] (puzzle: Exclusion 2) | – | – | 22.8 nM | –
GAGCCACAUGAGGAUCACCCAUGUGAGGAUAUCAUGCUUCGUAGUAAACUACGAAGUGUGAGAAGGCACAAUGG [Omei Ex1 C5] (Eterna round: R97, puzzle: Exclusion 1) | 233 nM | 99.7 nM | – | –
GAGCCUAAUGUAGGAUAUCGAGGUCGGUGACGUCGAGAAGGACAUGAGGAUCACCCAUGUCGUAGCGGCGGGAACGCUGCUACG [first try -36 kcal] (Eterna round: R96, puzzle: Exclusion NG 1) | 82.9 nM | 274 nM | – | apparent KD of MS2 coat protein (input ligand: microRNA oligo, concentration not stated): 147 nM
GAGCUAUGAGGAUAUGCAUAGAUACGGAUUCGUGUAGUACUACAUGAGGAUCACCCAUGUAGAAGGCGUGGCAG [Mat - Exclusion 2 - Mod of JL - D76] (puzzle: Exclusion 2) | – | – | 13.9 nM | –
GAGGAACAUGAGGAUCACCCAUGUGAGGAUAUGCAUAGUGAGGUAGUAGACGUUUAUUGCAGAAGGUACACUGA [JR_Exclu1_Sub079] (puzzle: Exclusion 1) | – | – | 25.6 nM | –
GAGGAGCAAGGAUAUACGAGGAUAGGGAAGUGAGGAGAGUGACAUGAGGAUCACCCAUGUAGAAGGUGCAAGGG [JR_Exclu2_Sub094] (puzzle: Exclusion 2) | – | – | 89.4 nM | apparent KD of MS2 coat protein [2]: 111 nM; apparent KD of MS2 coat protein [3]: 190 nM
GAGGAUAGAGGAUAUGCAUAGAUACGGAUUCGUGUAGUACUACAUGAGGAUCACCCAUGUAGAAGGCUGUCCUG [JL-ex2-2.01 mat747 mod] (puzzle: Exclusion 2) | – | – | 12.9 nM | –
GAGGCAUGCUGAGGUCCACACAUGAGGAUCACCCAUGUAAUGACAAGCUUUUUACUCAUCUUAUCGCUAUCGCGUUC [Tiinarre] (puzzle: Sensor v3, turn-off variant 1) | – | – | 66.6 nM | apparent KD of MS2 coat protein [2]: 19.1 nM; apparent KD of MS2 coat protein [3]: 16.3 nM
GAGGCCAUAGGAUAUCUGUUACGGGACAUGAGGAUCACCCAUGUACUGGCAAGUCCUCGGAGAGAAGGAUGACUCU [Eternabot (L1) Solution 68] (Eterna round: R97, puzzle: Exclusion 5) | 21.9 nM | 18.3 nM | – | –

Sequence | apparent KD of MS2 coat protein (input ligand: FMN 200 uM) | apparent KD of MS2 coat protein (input ligand: none) | apparent KD of MS2 coat protein [1] | other results
GAGGUGUAAGGAUAUAGCUAUAGGCUAACCGGGACCCAUAGCUAGAAGGUACAUGAGGAUCACCCAUGUUUGCU [Eternabot (L1) Solution 99] (Eterna round: R97, puzzle: Exclusion 4) | 34.9 nM | 22.6 nM | – | –
GAGGUGUUAGGAUAUCGGAGAUGGAGACCAACGGGAUGAGCCGAGAAGGAACAUGAGGAUCACCCAUGUAGGUG [JR_Exclu4_Sub032] (puzzle: Exclusion 4) | – | – | 755 nM | apparent KD of MS2 coat protein [2]: 345 nM; apparent KD of MS2 coat protein [3]: 763 nM
GAGUAGUAAGGAUAUGUCUCUGGUGGCUACGGUCACUAGAGGCAGAAGGUACAUGAGGAUCACCCAUGUUCCUC [ExDelusion 8 - Jieux - Exclusion 4] (Eterna round: R97, puzzle: Exclusion 4) | 186 nM | 55.8 nM | – | –
GAGUGACAUGAGGAUCACCCAUGUGAGGAUAUCGGACGGACCAAAUUAACAACAAACGCGAGAAGGCACAUCGG [Exclusion 1 V19] (puzzle: Exclusion 1) | – | – | 74.9 nM | –
GAGUGACAUGAGGAUCACCCAUGUGAGGAUAUCGGACGGACCAAAUUAACAAUAAAUGCGAGAAGGCACAUCGG [Exclusion 1 V13] (puzzle: Exclusion 1) | – | – | 55.4 nM | –
GAGUGACAUGAGGAUCACCCAUGUGAGGAUAUCGGACGGACCAAAUUAACAAUAAUUGCGAGAAGGCACAUCGG [Exclusion 1 V14] (puzzle: Exclusion 1) | – | – | 52.1 nM | –
GAGUGACAUGAGGAUCACCCAUGUGAGGAUAUCGGACGGACCUUGUUGGCUUCCGCCGCGAGAAGGCACCUCGG [Exclusion 1 V27] (puzzle: Exclusion 1) | – | – | 32.5 nM | –
GAGUGAUGAGGAUAUACAUGAGGAUCACCCAUGUGCUUCAGCUAGGAGACUAGCAUUGGUAGAAGGCAUUACUC [Mod of lroppy 7 - Jieux - Exclusion 3] (Eterna round: R97, puzzle: Exclusion 3) | 90.1 nM | 15.8 nM | – | –
GAGUGCUGAGGAUAUACAUGAGGAUCACCCAUGUGCUUCAGCUAGGAGACUAGCAUCCGUAGAAGGCAGUACUC [Mod of lroppy 24 - Jieux - Exclusion 3] (Eterna round: R97, puzzle: Exclusion 3) | 37.5 nM | 14.3 nM | – | –
GAGUUAGCGUGUGGAAUAUACAUGAGGAUCACCCAUGUUAGCUUAUAUAUUGCUCGUCUUAUAACAACACUUAACUG [Mod JX-Electric-eye4] (Eterna round: R97, puzzle: Sensor, turn-off variant 1) | 42.7 nM | 45.8 nM | – | –
GAUAGAGAGCAGGAUAUCUUGGAUAAGUAUAGUAGAGAAGGGCUCACAUGAGGAUCACCCAUGUGGUCCAAGAU [JL Dibiri mod 12] (puzzle: Exclusion 6) | – | – | 14.8 nM | apparent KD of MS2 coat protein [2]: 28 nM; apparent KD of MS2 coat protein [3]: 15.8 nM
GAUAGUGGAGGAUAUACAUGAGGAUCACCCAUGUGAAGUUGCGUAAGUGACCCUUCCUGUAGAAGGCCAAGCAA [Eternabot (Original) Solution 31] (Eterna round: R97, puzzle: Exclusion 3) | 256 nM | 31.9 nM | – | –
GAUCAACAUGAGGAUCACCCAUGUGAGGAUAUGAUACUAUGUACUUCGGUACAUAGUAUCAGAAGGCACUAGGA [Ex1-3: 40] (puzzle: Exclusion 1) | – | – | 64 nM | –
GAUCAUGCAGGAUAUGCAGUAACCAUGAAAACAUGGUUGCAACAUGAGGAUCACCCAUGUAGAAGGGCAUGAUC [Omei Ex2 A3] (Eterna round: R97, puzzle: Exclusion 2) | 10.8 nM | 13.9 nM | – | –
GAUCCACAUGAGGAUCACCCAUGUGAGGAUAUGAUACUAUGUACUUCGGUACAUAGUAUCAGAAGGCACGGAUC [Ex1-3: 54] (puzzle: Exclusion 1) | – | – | 24.6 nM | –
GAUCCGUUAGGAUAUCGUGAGGACAGCUAGUCUUAUUAACACGAGAAGGAACAUGAGGAUCACCCAUGUGGUAA [Eternabot (L1) Solution 14] (Eterna round: R97, puzzle: Exclusion 4) | 279 nM | 62.3 nM | – | –
GAUCGACAUGAGGAUCACCCAUGUCAGGAUAUCGUCACUGGAGCCUCGGCUCCAGUGACGAGAAGGGACAUAAU [E1/13-A2] (Eterna round: R97, puzzle: Exclusion 1) | 46.8 nM | 39.4 nM | – | –
